Data from a protein production outcome set (Wang et al. 2014).

Test: label from the status in PepcDB records
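Further: failed if final PepcDB status was selected cloned or expressed and not failed if soluble or beyond.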

Sequence: MTDEKKVPSKPARPARKPRADKPADAKPAAVPKVAAPAVVEGSSTNAAAVKKSLRDGGMTALPSEILFAVGSIPLVVDKDALSTLAAALVASDDPSTWFVANRELIRAVVFVPQQNNVLRATPLLSVRPVASLSSVHNWQVRNHLSGLHVVVGGTGAGKSKWLNAQTPDVTIRWGEPGETFDMEESSIAVADLTEMLAVALLLATADYRVVIDSFRNLVFGITGAAGPGGVSVALYAALTSLNNICAELGVLLVAAINPMSSDDKVSLVYNNIAASVAGMTVVNNAAVVSQTIRSGTGRIFSGEPAPRNDSPVEYHEPRHTQLDEPSGPSARIRLESNNIDPDDENDNRPRRGARISL
- protein production: not failed

Sequence: MTDFQKQFFARLNIEEKQKVSFEDLSNIMYAMAQTVPFENLNVLEKNFKEISQENLKEKILVNNRGGLCYELNPTMYYFLKDAGFDVYLVSGTVYNAANSIWAVDSGHIATILKHHNELYLIEVGFGSYLPLAPVPFSGEVVQSVTGDYRIRKEMTEKGNYMLEMRKNDEFLDQSSTDDWTLGYAFYIEEVDEKKQMQHKKLLLNTMAHHLTKYLLL
- protein production: failed

Sequence: MTDIFLEGGRALIGTELVETSLSVAGTDIARVDAARGRARLAIDARNLLVLPGIVDLHGDAFERQMMPRAGVDFPIDVALADSDRQAISNGITTVFHATTCSWEPGLRSADNARGLMEAIERQRPQFAADTRFHLRHETYNLDAEAEISRWLAEGRVDLFAFNDHMDGTVADMAKPRKRNRMVERTGLSSEDFDGLVDRVISRAADVPASVSRLAASARAADVRMLSHDDATPAMRREFRELGADIAEFPINEETARAAASHGDAIVYGAPNVVRGGSHTGWTRASDMIAKGLCSVLASDYYYPAQLLAAFRLAADGVLPLTEAWSLVSAEPARAAGLADRGILAEGRRADILLVDDTVPLRPRLVAVISGGKLVHLTDATRLLSAAAAPREAVVAA
- protein production: failed

Sequence: MTDIIREYYNKNSKNEWLRLNDPYNRLELFSTMYMIKEYFPQEGKILDIGSGPGRYSIELLKRGYEVSLMDLSEKSIDMAKNNIESMGLKANDYICGDALYLDFIKDNTFDGILLMGPMYHVKSREDRIRILENCMRILKPGGIILIAYINSLGVLKVGLSDFPQEYKDINKIYDLFDEKGFSQEESFTETYFTVPEKAISEVNEVGFNILSRAGAESFLSGQAFYMTKYYLEDKEIYFNLLKVATEKCEDERFRDSTEHLIIVAKK
- protein production: failed

Sequence: MTDIMARFVGYTGKVLPDDVTAKLQDLHKKETSQLADVIFTTMIENQRLAKELDRPSCQDTGVIQFLVECGANFPLIGELEALLRESVIKATIDSPLRHNSVETFDEYNTGKNVGKGTPTVFWEIVPNSDQCSIYTYMAGGGCSLPGKAMVLMPGAGYEGVTRFVLDVMTSYGLNACPPLLVGVGVATSVETAALLSKKALMRPIGSHNDNERAALLEKMLEDGINKIGLGPQGMSGNTSVMGVNIENTARHPSTIGVAVNVGCWSHRKGHIVFDKDLNYTITSHKGVAF
- protein production: failed

Sequence: MTDIVLADRYRLGDVIGTGGMSEVYEATDVLLGRKVAVKMLRADLARDVNFRERFRREAQNSGKLNHPAIVAVYDTGETPRAGLNTPYIVMELVNGRTLRDIVREDGPLTPSQAAHTLIPVCHALQVSHDAGIIHRDIKPANVMITNTGAVKIMDFGIARALDDATSAMTQTSAVIGTAQYLSPEQARGKLADARSDVYALGCVLYETLTGKPPFEGETPFAVAYQHVQEDPVKPSEYIADLSPTAAINVDAVVLTAMAKHPGDRYQTAQEMCADLERLGRNAVTDAARHYVTPTSFATQDPASTTVVPVTQVTELDHAEAGAGIGAGVVPAGAVAGSAAVAGSGGAHAAPRSSNRGLRILAAILAVLVLAVGAGFAIDYFGGGPFSQRSTVTIPKLQNSTQQDAVNQLEKLGLQVNVIEEPNPDIPRGKVIRTNPTDGSNVQRNSTVRLTISSGKEITEVPDLSGKNTADAVKILEAAGLLLDPTVREDSSDTVPKGEIIEVSPAAGSQVSRGSKVSITVSTGVETVRVPVITGMKWDQAEGNLTSLGFKPEVVRVDSVEPAGTVVAVPDEGAEVPKGSSVTVQISNGAMFTVPEITRQTIDDAVRILHDAGWKGNASRLIQAAKVPTVAVTDQNLIASQLPTPGTALRKDAPIEIRLYEFNLAALVPPAQH
- protein production: failed

Sequence: MTDLELQQLTQRIAQESFGKSFPYKVVFNQRLKTTGGRYHLNDHHIDINPLMLEEFDEATLIGVIKHELVHYFVHMLNEKPDHRNPHFQQLLRAVGGLRYAPTTSKRRRTPPKLLYQCQGCGLQYPRQRRINTRKYVCSKCRGRLKLL
- protein production: failed

Sequence: MTDLLLDGSEADNAQTVLNAARIELLSPRLANQIAAGEVVERPASVIKELLENSLDSGARRIDIDVEQAGIKLLKVRDDGGGISSDDLPLALARHATSKIRDLEDLERVMSLGFRGEALASISSVARLTLTSRTRDADQAWQVETEGRDMDARVQPAAHPVGTSVEVRDLFFNTPARRKFLKAEKTEFDHLHEVIKRMALARFDVAFHLRHNGKTVLSLHEAHDDTARARRVSAICGPGFLEQALPIEIERNGLHLWGWVGLPTFSRSQADLQYFFVNGRAVRDKLVAHAVRQAYRDVLFNGRHPTFVLFFEVDPAAVDVNVHPTKHEVRFRDGRMVHDFLYGTLHRALGDVRPENQLGGSVPAAAEPRPTGPDAGEFGPQGEMRLANNVLEQPQGEPFARPAGGGSGSGYQYSPRPTTGVPVAEAQSAYREFFAPLPGTTPSALPESPSDIPPLGYALAQLKGIYILAENAHGLVLVDMHAAHERIMYERLKIAMANEGLSGQPLLVPESIAVSQREADCAEEHITTFQRLGFELQRLGPETLAIRQIPALLKQAEANRLVSDVLADLMEYGTSDRVQAHMNELLGTMACHGAIRANRRLAIPEMNGLLRDMENTERSGQCNHGRPTWTQMGLSDLDKLFLRGQ
- protein production: failed

Sequence: MTDNSPPPNGHAQARVRKNNTFLSAVWLVPLIALIAGGWLWVKEIRNRGPVVTLLMDSAEGIEVNNTVIKVLSIDVGRVTRIKLRDDQKGVEVTAQLNADVSGLIRSDTQFWVVKPRIDQSGVTGLGTLLSGSYIAFTPGKSDEAKDVFQVQDIPPVTAIGQSGLRLNLIGKNDRILNVNSPVLYENFMVGQVESAHFDPSDQSVHYTIFIQSPNDKLIHSASRFWLESGINIETTGSGIKLNSAPLPALLSGAISFDSPKTKNSKNVKSEDSFTLYDSRSEVANLPDDRSLYYTAFFKQSVRGLTVGSPVEYKGLNVGVVSDVPYFDRNDSLHLFENGWIPVRIRIEPSRLEINADEQSKEHWKQQFQTALNKGLTATISSNNLLTGSKMIELNDQPSASPKLRPHTVYAGDTVIATQGGGLDDLQVKLADLLDKFDKLPLDKTVAELNGSLAELKSTLKSANAALSSIDKLVGKPQTQNIPNELNQTLKELRTTLQGVSPQSPIYGDVQNTLQSLDKTLKDVQPVINTLKEKPNALIFNSSSKDPIPKGSR
- protein production: failed

Sequence: MTDNTAVRRRYEKSFTERPGFTEDEIEEIREAFNLLDTDGTGTIDPKEIKCAMQSLGLDAKNPMIFRMIADLEKDGYSSIDFEEFMEVITSKLGNKDTREGIQRIFNLFDDDKTGSISLKNLKRVAKELGETLTDEELRDMIDRADSKGEGEISFEDFYTIMTKKSFL
- protein production: failed

Sequence: MTDQLQHIRKPPRTGKAARSGTQDEIVYAHIFDAILEQRLAPGTKLSEEALGEIFGVSRTIIRRALSRLAHEQVVLLRPNRGAVVASPSIDEARQILFARRTVERAITELATDNATAERLAEL
- protein production: failed

Sequence: MTDQRWLIDKSALVRLTDSPDMEIWSNRIERGLVHITGVTRLEVGFSAECGEIARREFREPPLSAMPVEYLTPRIEDRALEVQTLLADRGHHRGPSIPDLLIAATAELSGLTVLHVDKDFDAIAALTGQKTERLTHRPPSA
- protein production: not failed

Sequence: MTDQTYCDRLVQDTPFLTGHGRLSEQQVDRIILQLNRYYPQILTNKEAEKFRNPKASLRVRLCDLLSHLQRSGERDCQEFYRALYIHAQPLHSRLPSRHALQNSDCTELDSGSQSGELSNRGPMSFLAGLGLAVGLALLLYCYPPDPKGLPGTRRVLGFSPVIIDRHVSRYLLAFLADDLGGL
- protein production: failed
